From patent US20250195657A1 (NEOMICS PHARMACEUTICALS, published 2025) come the findings set out here.

What is called Kd is the constant that tells how readily two partners part at equilibrium.

The target in this experiment is T1, B cell maturation antigen (BCMA) (UniProt Q02223 1-54, limits assumed).
T1 construct: also called CD269; TNFRSF17
T1 sequence (looked up): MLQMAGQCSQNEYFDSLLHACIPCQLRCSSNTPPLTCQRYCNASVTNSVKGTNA
Kind of experiment: not stated (no method given).

B1: BCMA nanobody (BCMA binding domain of NPB5005) (VHH)
VHH: EVQLQASGGGLAQPGGSLRLSCAASGRTFSTYFMAWFRQPPGKGLEYVGGIRWSDGVPHYADSVKGRFTISRDNAKNTVYLQMNSLRAEDTAVYFCASRGIADGSDFGSYGQGTQVTVSS
Turning to B1, the Kd was determined as 1 nM.
